Assay: yeast display, Sf9 membrane polyspecificity reagent, FACS + sequencing; frameworks hold sequencing errors
How it was run: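 A synthetic nanobody library was expressed on Saccharomyces cerevisiae BJ5465 by galactose induction for 36–48 hours. The library was stained for 1 hour at 4 °C with 10% biotinylated, detergent-solubilized Sf9 membrane reagent and enriched with streptavidin microbeads before FACS. Low and high (top ~1%) gates were set on anti-HA fluorescence for expression and streptavidin fluorescence for reagent binding, and each polyreactivity label reflects the gate of origin.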

QVQLVESGGGLVQAGGSLRLSCAASGRIFYYNAMGWYRQAPGKERELVAGITWRGGSTYYADSVKGRFTISRDNAKNTVYVQMNSLKPEDTAVYYCAKVGWTPYGVSPYDYWGQGTQVTVSS
polyreactivity (PSR sort gate): high polyreactivity

QVQLVESGGGLVQAGGSLRLSCAASGRIFRGYAMGWYRQAPGKERELVAAITSRGGSTYADSVKGRFTISRDNAKNTVYLQMNSLKPEDTAVYYCNAGYRAYSSKLVFRGYPRYDYWGQGTQVTVSS
polyreactivity (PSR sort gate): low polyreactivity

QVQLVESGVGLVQAGGSLRLTCAASGRIFDYYAMGWSRQAPGKETELVARISRGATTNYADSVKGRFTISRDNAKNTVYLQINSLKPEDTAVYSCNARQYLAYVSWKGMGFWGQGTQVTVSS
polyreactivity (PSR sort gate): high polyreactivity

QVQLVESGGGLVQAGGSLRLSCAASGRTFLPNAMGWYRQAPGKERELVAVITSGGSTNYADSVKGRFTISRDNAKNTVYLQMNSLKPEDTAVYYCAARRWSSSQGHWGKSAGYGYLGQGTQVTVSS
polyreactivity (PSR sort gate): low polyreactivity

QVQLVESGGGLVQAGGSLRLSCAASGSIFLYYAMGWYRQAPGKERELVAAITGGGGTNYADSVKGRFTISRDNAKNTVYLQMNSLKPEDTAVYYCAADPSGQFPYSYYNYDYDYWGQGTQVTVSS
polyreactivity (PSR sort gate): low polyreactivity

QVQLVESGGGLVQAGGSLRLSCAASGITFQKNAMGWDRPAPGKEMEWVAGITWRGSTYYADSVKGRFTISRDNAKNTVYLQMNSLKPEETAVYYCAADPFYWYRSVRGEYWGQGTQVTVSS
polyreactivity (PSR sort gate): low polyreactivity

QVQLVESGGGLVQAGGSLRLSCAASGLIFYAYAMGWYRQAPGKEREFVAAINNSGGRTYYADSVKGRFTISRDNAKNTVYLQMYSLKPEDTAVYYCAVYSYYRRTYRREMDYWGQGTQVTVSS
polyreactivity (PSR sort gate): high polyreactivity

QVQLVESGGGLVQAGGSLRLSCAASGSTFYTYAMGWYRQAPGKERELVAAISNRGGSTRYADSVKGRFTISRDNAKNTVYLQMNSLKPEDTAVYYCAARVTQTGYYWGQGTQVTVSS
polyreactivity (PSR sort gate): high polyreactivity

QVQLVESGGGLVQAGGSLRLSCAASGRTFWRYAMGWYRQAPGKERELVADISNSDTSTYYADSVKGRFTISRDNAKNSVYLQMKSLKPEDTAVYYCAARPFRFRLSDKYNYWGQGTQVTVSS
polyreactivity (PSR sort gate): high polyreactivity

QVQLVESRGGLVQAGGSLRLSCAASVRTFQKNTMGWYRQAPGKERELVAAIDYSATSTYYADSVKGRFTISRDNAKNTVYLQMNSLKPEDTAVYYCAARWSYPRWEFDYWGQGTQVTVSS
polyreactivity (PSR sort gate): high polyreactivity

QLQLVESGGGLVQAGGSLRLSCAASGFNFPANAMGCYRQAPGKEREFVAAITRRGGSTYYADSVKGRFTISRDYAKNPVYLQMNSLKPEDTAVYYCATYDPARSTQGYDYWGQGTQVTVSS
polyreactivity (PSR sort gate): high polyreactivity

QVQLVESGGGLVQAGGSLRLSCAASGIIFYSYAMGWYRQAPGKERELVATISFSGDNTYYADSVKGRFTISRDNAKNTVYLQMNSLKPEDTAVYYCAAASTYGGYYYSVSFEYWGQGTQVTVSS
polyreactivity (PSR sort gate): low polyreactivity

QVQLVESGGGFVQAGGSLRLSCAASGSIFGSYAMGWYRQAAGKERELVPDISSGGSTNYADSVKGRFTISRDNAKYTVYLQMNSLKPEDTAVYYCNADDPAGYLYWWGSWLESDYWGQGTQVTVSS
polyreactivity (PSR sort gate): low polyreactivity

QVQLVESGGGLVQAGGSLRLSCAASGSIIVWNAMGWYRQAPGKERELVASITSGASTYYADSVKGRFTISRDNAKNTVYLQMNSLKPEDTAVYFCAAYYGYTDVWYLYSGYNYWGQGTQVTVSS
polyreactivity (PSR sort gate): low polyreactivity

QVQLVESGRGLVQAGRTLRLSCAASGFIFQWYTMGWYRQAPGKDRELVADIRSGGDTNYADSVKGRFTISRDTAKNSVYLQMYSLKPEDTAVYYCATETFFPLRRASYGRKLGYWGQGTQVTVSS
polyreactivity (PSR sort gate): low polyreactivity

QVQLVESGGGLVQAGGSLRLSCAASGRIFPQNAMGWYRQAPGKERELVAVITGNGSTYYADSVKGRFTISRDNAKNTVYLQMNSLKPEDTAVYYCAARVSWPYHRGARDYWGQGTQVTVSS
polyreactivity (PSR sort gate): low polyreactivity

QVQLVESGGGLVQAGGSLRLSCAASGFIFRRNAMGWYRQAPGKERELVAAISAGGTSTYYADSVKGRFTISRDNAKNTVYLQMNSLKPEDTAVYYCNKAYYYDAEYDYWGQGTQVTVSS
polyreactivity (PSR sort gate): high polyreactivity

QVQLVESGGGLVQAGGSLRLSCAASGRIFYGYVMGWYRQAPGKETELVAAMTWSGSRTYYADSVKGRFTISRDNAKNTVYLQMNSLKPEDTAVYYCAARIPSDGYSYWGQVTQVTVSS
polyreactivity (PSR sort gate): high polyreactivity

QVQLVESGGGLVQAGGSLRLSCAASGSIFGLNAMGWYRQAPGKERELVAAISGGSTNYADSVKGRFTISRDNAKNTVYLQMNSLKPEDTAVYYCAARARRRYYYWGQGTQVTVSS
polyreactivity (PSR sort gate): high polyreactivity

QVQLVESGGGLVQAGGSLRLSCAASGFIFYDYSMAWYRQAPGKEREFVAAISWSGGRTYYADSVKGRFTISRDNAKNTVYLQMNSLKPVDTAVYYCAVDAYRYWWTTYVSDFDYWGQGTQVTVSS
polyreactivity (PSR sort gate): high polyreactivity

QVQLVESGGGLVQAGGSLRLSCAASGIIFSSYVMGWYRQAPGKERELVAAISKSGARTSYADSVKGRFTISRDNAKNTVYLQMNSLKPEDTAVYYCAATYLLERPTSKHPRYDYWGQGTQVTVSS
polyreactivity (PSR sort gate): low polyreactivity

QVQLVESGGGLVQAGGSLRLSCAASGITFAGYAMGSDREAPGTERELVAAITRRGGITYYADSVKGRFTISRDNAKNTVYLQMNSLKPEDTAVYYCNAGRRVSTYGYWGQGTQVTVSS
polyreactivity (PSR sort gate): high polyreactivity

QVQLVESGGGLVQAGGSLRLSCAASGRTFAWKAMGWYRQAPGKERELVAAMSSRGTSTYYADSVKGRFTISRDNAKKTVYLQMNSLKPEDTAVYYCAKYTNPASGEYGYWGQGTQVTVSS
polyreactivity (PSR sort gate): high polyreactivity

QVQLVESGGGLVQAGGSLRLSCAASGSTLDYYAIGWYRQAPGKEREFVAGIDSAGSTNYADSVKGRFTISRDNAKNTVYLQMNSLKTGRYRGLYCNVGKTITTYAFPTFDYWGQGTQVTVSS
polyreactivity (PSR sort gate): low polyreactivity

QVQLVESGGGLVQAGGSLRLSCPASGSTLVYNDMGWYRQAPGKEREFVAAIRSNDGSTYYADSVKGRFTISRDNAKNTVYLQMNSLKPEDTAVYYCNKDVWDGYDWPEFDYWGQGTQVTVSS
polyreactivity (PSR sort gate): low polyreactivity

QVQLVESGGGLVQAGGSLRLSCASSGRTFAGNVMGWYRQAPGKERELVAAITGRGGSTYYADSVKGRFTISRDNAKNTVYLQMNSLKPEDTAVYYCNALTWPRYYYWGQGTQVTVSS
polyreactivity (PSR sort gate): high polyreactivity

QVQLVESGGGLVQAGGSLRLSCAASGHSFFYYTMGWYRQAPGKERELVAGITIGGSTNYADSVKGRFTISRDNAKNTVYLQMNSLKPEETAVYYCKKRYVVSRKYDYWGQGTQVTVSS
polyreactivity (PSR sort gate): low polyreactivity

QVQLVESGGGLVQAGGSLRLSCAASGSTFGKYAMGWYRQAPGKERELVAAITESDSSTYYADSVKGRFTLSRDNAKNTVYLQMNSLKPEDTAVDYCAADSLYSYPWSTYFYGGDYWGQGTQVTVSS
polyreactivity (PSR sort gate): low polyreactivity

QVQLVESGGGLVQAGGSLRLSCAASGYIFSGYAMGWYRQAPGKERELVAAISSSGGRTYYADSVKGRFTISRDNAKNTVYLQMNSLKPEDTAVYYCATVPRKTPGNAELDYWGQGTQVTVSS
polyreactivity (PSR sort gate): high polyreactivity

QVQLVESGGGLVQAGGSLRLSCAASGRIFSYNAMGWYRQAPGKERELVAAISSDGSTYYADSVKGRFTISRDNAKNTVYLQMNSLKPVDTAVYYCAARQVVWFDYTTAQVGSYKVNYWGQGTQVTVSS
polyreactivity (PSR sort gate): low polyreactivity

HVQHVESGGGLVQAGGSLRLSCAASGRTFGYYALGWYRQAPGKERELVARISTRGGSTNYADSVKGRFTISRDNAKNTVFLQMNSLKPEDTAVYSCYARGGYGGGYDYWVQGTQVTVSS
polyreactivity (PSR sort gate): high polyreactivity

QVQLVESGGGLVQAGGSLRLSCAASGRTFYANAMGWYRQAPGKERELVAAISSSGSRTYYADSVKGRFTISRDNAKNTVYLQMNSLKPEDTAVYYCNAAAPYLTRQHWARDYWGQGTQVTVSS
polyreactivity (PSR sort gate): high polyreactivity

QVQLVESGGGLVQAGGSLRLSCAASGRIFFVNAMGWYRQAPGKERELVAAISRGGSTNYADSVKGRFTISRDNAKNTVYLQMNSLKPEDTEVYYCNADGSSYWYPVPLDGGDYWGQGTQVTVSS
polyreactivity (PSR sort gate): low polyreactivity

QVQLVESGGGLVQAGGSLRLSCAASGSTFSYYAMGWYRQAPWKERELVAASTAGGGSTYYADSVKGRFTISRDNAKNTVYLHMNSLKPEDTAVYYCNADQIFGPALNLWKLDYWGQGTQVTVSS
polyreactivity (PSR sort gate): low polyreactivity

QVQLVESGGGLVQAGGSLRLSCAASGSTFYHYAMGWYRQAPGKERELVAAISTSGGRTYDADSVKGRFTISRDNAKNNVYLQMNSLKPEDTAVYYCAARPGSWYPSVPSYNYWGQGTQVTVSS
polyreactivity (PSR sort gate): low polyreactivity

QVQLVESGGGLVQAGGSLRLSCAASGITFTSYVMGWYRQAPGKERELVAAIRWSGGRTYYADSVKGRFTISRDNAKNTVYLQMNSLKPEDTAVYYCNRVTRSHVDYWGQGTQLTVSS
polyreactivity (PSR sort gate): high polyreactivity

QVQLQESGGGLVKAGGSLRLSCAASGYLILQYAMGWYRPAPGKERELVASIARGTSTYYADSVKGRFTISRDNAKNTVYLQMNSLKPEDTAVYYCAVIYSWGLWHDYWGQGTQVTVSS
polyreactivity (PSR sort gate): high polyreactivity

QVQLVESGGGLVQAGGSLRLSCAASGRTFYPYAMGWNRQAPGKERELVAAIRSSGGTTYYADSVKGRFTISRDNAKNTVYLQMNSLKPEDTAFYYCAAYVDRQGGYYWGQGTQVTVSS
polyreactivity (PSR sort gate): high polyreactivity

QVQLVESGGGLVQAGGSLRLSCAASGRTDRTNAMGWYRQAPGKERELVAAISTGGGITNYADSVKGRITISRDNAKNTVYLQMNSLKPEDTAVYYCNADIYTWFQIGGYQYDYWGQGTHVTVSS
polyreactivity (PSR sort gate): low polyreactivity

QVQLVESGGGLVQAGGSLRLSCAASGRTFASNAMGWYRQAPGKERELVAAISYSGGRTYYADSVKGRFTISRDNAKNTVYLQMNSLKPEDTAVYYCAKVGPVYKYDYWGLGTQVTVSS
polyreactivity (PSR sort gate): high polyreactivity

QVQLVESGGGLVQAGGSLRLSCAASGFTLDPYAMGWYRQAPGKERELVAAIRLSGSSTYYADSVKGRFTISRDNAKNTVYLQMNSLKPEDTAVYYCAADGISHWLYRYDYWGQGTQVTVSS
polyreactivity (PSR sort gate): low polyreactivity

QVQLVESGGGLVQAGGSLRLRCAASGSTFSSYAMGWYRQAPGKERELVAAISSRGGRTYYADSVKARFTISRDNAKNTVYLQMNRLIPEDTAVYYCAADWGVRDEYYYWGQGTQVSVSS
polyreactivity (PSR sort gate): high polyreactivity

PVQLVESGGGVVQAGGSLRVSCAASGSIFYVYAMGWYRQAGGKEWELVAAINPSGGSTFYADSVKGRFTISRDNAKTTDYLQMNSLTPEHTAVYYCAAERYRYRSTDTMGYWGQGTQVTVSS
polyreactivity (PSR sort gate): low polyreactivity
